According to patent US10947270B2, “Targeted prodrug cytosine deaminase fusion carrier and application thereof” (National Yang-Ming University, priority 2015, dated 2021):

Experiments:
[1] = Enzyme activity and kinetic analysis of yCD series recombinant proteins (5-FC converted into 5-FU); type: biochemical; details: 50 nM protein
Experimental: FIGS. 2A-2B show the enzyme activities of RGD4C-yCD, yCD, RGD4C-yCD/UPRT and yCD/UPRT proteins to convert 5-FC to 5-FU. 50 nM of RGD4C-yCD, yCD, RGD4C-yCD/UPRT or yCD/UPRT protein reacted with increasing concentrations of 5-FC in phosphate buffered saline solutions. […] The measured data was used to plot the enzyme kinetic curve that takes the substrate concentration [S] as the x-axis and takes the initial reaction rate V0 as the y-axis,
The enzyme activity of 5-FC converted into 5-FU by RGD4C-yCD, yCD, RGD4C-yCD/UPRT and yCD/UPRT is performed. The recombinant protein concentration (50 nM) added with 5-FC at different concentrations. The 5-FC consumption and the generated amount of 5-FU is calculated. The measured data is taken as the x-axis by the substrate concentration [S]; the initial reaction rate V0 is the kinetic curve by making a diagramthe with y-axis (see FIG. 2A and FIG. 2B); the non-linear regression is made by the prism software according to the Michaelis-Menten equation; calculate the enzyme kinetic parameter Km and Vmax. […] It is speculated that the yCD function in each fusion protein is similar, but yUPRT may affect the effects of yCD and 5-FC.

integrin αvβ3 receptor = integrin αvβ3 receptor (Homo sapiens, UniProt P05106+P06756); experiment: ELISA binding assay of yCD series recombinant protein to integrin αvβ3 receptor; details: for decrease of binding to integrin αvβ3 by RGDfv peptide: RGDfv peptide at same concentration
Experimental: FIGS. 3A-3B show the binding affinity and specificity of RGD4C-yCD, yCD, RGD4C-yCD/UPRT and yCD/UPRT proteins to integrin αvβ3. The binding affinities of RGD4C-yCD, yCD, RGD4C-yCD/UPRT and yCD/UPRT proteins to integrin αvβ3 were determined by ELISA assay using horseradish peroxidase (HRP)-tagged anti-His6 antibody (FIG. 3A). The dissociation constant Kd is obtained by prism software with curve fitting method. […] (*compared with untreated RGDfv group, P<0.05)
The specific binding ability of RGD4C-yCD, yCD, RGD4C-yCD/UPRT and yCD/UPRT recombinant protein to integrin αvβ3 receptor is analyzed by ELISA binding assay, plotted with prism software and made with curve fitting to find the dissociation constant Kd value.

[2] = system: HUVEC, U87MG and MCF-7 cells; experiment: Specific binding assay of yCD series recombinant protein and cell, statement for the three cells; type: cell-based, human
Experimental: (§1) FIG. 5A, FIG. 5B, and FIG. 5C are respectively represented HUVEC cells, U87MG cells, MCF-7 cells seeded in 96-well plates for 24 hours, and then RGD4C-yCD, yCD, RGD4C-yCD/UPRT and yCD/UPRT with different concentrations are added for cells binding assay. After reacted with anti-His-HRP antibody and TMB substrate, ELISA reader (OD450 nm) is used to detect the amount of recombinant protein bound to the cells, and the binding curve is drawn. The nonlinear curve of the prism software is used to make a diagram and calculate the dissociation constant (Kd).
(§2) The anti-His6-Tag-HRP antibody and TMB show the color reagent to detect the amount of recombinant protein bound to the cell, then the dissociation constant Kd value of the recombinant protein and the integrin αvβ3 receptor is calculated and a binding curve is drawn. […] The cell binding ability of RGD4C-yCD for HUVEC and U87MG are about 7.7 folds and 6.8 folds higher than MCF-7 respectively. The cell binding ability of RGD4C-yCD/UPRT for HUVEC and U87MG are about 6.9 folds and 5.8 folds higher than MCF-7 respectively. […] It is shown that RGD4C-yCD and RGD4C-yCD/UPRT are specially bound with integrin αvβ3 through RGD4C sequence.

HUVEC and U87MG cells = experiment: Fluorescence microscopy of binding and distribution of yCD series fusion proteins; type: cell-based, human; details: 500 nM protein, 2 hours
Experimental: (FIG. 8A) or 37° C. […] (FIG. 8C) or 37° C. (FIG. 8D) for 2 hours, and then the fluorescent staining is performed for the cells, and the confocal fluorescence microscope is used to observe the distribution of protein in cells. (Green signal: β3 integrin; red signal: anti-His6-tag (also represents the signal of the fusion protein); blue signal: Hoechst 33342 cell nuclear stain) (Calibration scale: 20 μm).
HUVEC and U87MG cells are co-cultured with culture medium containing 500 nM RGD4C-yCD and RGD4C-yCD/UPRT protein at 4° C. and 37° C. for 2 hours, then the cells are stained with fluorescence, and the distribution in the cell is observed by conjugated fluorescence microscopy.

HUVEC cells = experiment: Specific binding assay of yCD series recombinant protein and cell (cell ELISA); type: cell-based, human; details: HUVEC versus MCF-7
Experimental: as §1, §2

[3] = Enzyme kinetic analysis of yCD series proteins after DTPA modification, marking and purification; type: biochemical
Description: The enzyme activity of yCD is not affected by DTPA modification.
FIGS. 24A-24B show the kinetic curve of yCD series protein modified, labeled and purified by DTPA. The enzyme activity of the two proteins is not affected by the labeling conditions. After adding EDTA with a 10-fold molar excess of protein, and it is competitively purified, In-DTPA-yCD compared with the original enzyme activity.
The curve and enzyme kinetic parameters (see FIG. 18 and Table 13) are fitted by the […] protein enzyme kinetics through the Michaelis-Menten formula in the Graph prism program.
Before the protein is labeled by radioisotope, its enzyme function must be determined, and based on the original enzyme function, it should be examined whether it will be affected during the radioactive marking process. The curve and enzyme kinetic parameters of protein are fitted by the Michaelis-Menten formula in the Graph prism program. […] Whether the yCD and RGD4C-yCD protein detected by the same method will be affected under the conditions of DTPA modification, marking and purification. […] After the completion of the radioactive metal mark, it is necessary to add EDTA of 10-fold protein Moire number and react at room temperature for 1 hour to compete for the radioactive metal isotope indium which is not chelated on DTPA. The EDTA in this step also has the chance to chelate the metal zinc ion of the enzyme catalytic center, the enzyme activity is impaired, so it is necessary to analyze the enzyme activity of In-DTPA-yCD and In-RGD4C-yCD protein after competition with EDTA. After the EDTA competitive reaction is completed, the enzyme kinetics analysis can be carried out by reducing the EDTA molecule weight through membrane centrifugation method and by replacing the solution with pH 7.0. […] The curve and receptor binding ability parameters of the protein and integrin αvβ3 are fitted under the conditions of DTPA modification, marking and purification by the One site-Specific binding formula in the Graph prism program (see FIG. 25 and Table 18). […] Although the two proteins after marking are greatly affected by the enzyme activity, they still have good binding ability to the integrin αvβ3 receptor. In consideration of the indispensability of EDTA for radiochemical purity, it retains a considerable amount of enzyme activity. In addition, the effect of integrin αvβ3 receptor binding ability is minimal, in combination of cell uptake, biodistribution and angiography experiment, focusing on the evaluation of target results, and the subsequent biological experiment is still carried out by the marking and purification conditions.

Chain of integrin αvβ3 receptor (P06756 31-889 limits assumed): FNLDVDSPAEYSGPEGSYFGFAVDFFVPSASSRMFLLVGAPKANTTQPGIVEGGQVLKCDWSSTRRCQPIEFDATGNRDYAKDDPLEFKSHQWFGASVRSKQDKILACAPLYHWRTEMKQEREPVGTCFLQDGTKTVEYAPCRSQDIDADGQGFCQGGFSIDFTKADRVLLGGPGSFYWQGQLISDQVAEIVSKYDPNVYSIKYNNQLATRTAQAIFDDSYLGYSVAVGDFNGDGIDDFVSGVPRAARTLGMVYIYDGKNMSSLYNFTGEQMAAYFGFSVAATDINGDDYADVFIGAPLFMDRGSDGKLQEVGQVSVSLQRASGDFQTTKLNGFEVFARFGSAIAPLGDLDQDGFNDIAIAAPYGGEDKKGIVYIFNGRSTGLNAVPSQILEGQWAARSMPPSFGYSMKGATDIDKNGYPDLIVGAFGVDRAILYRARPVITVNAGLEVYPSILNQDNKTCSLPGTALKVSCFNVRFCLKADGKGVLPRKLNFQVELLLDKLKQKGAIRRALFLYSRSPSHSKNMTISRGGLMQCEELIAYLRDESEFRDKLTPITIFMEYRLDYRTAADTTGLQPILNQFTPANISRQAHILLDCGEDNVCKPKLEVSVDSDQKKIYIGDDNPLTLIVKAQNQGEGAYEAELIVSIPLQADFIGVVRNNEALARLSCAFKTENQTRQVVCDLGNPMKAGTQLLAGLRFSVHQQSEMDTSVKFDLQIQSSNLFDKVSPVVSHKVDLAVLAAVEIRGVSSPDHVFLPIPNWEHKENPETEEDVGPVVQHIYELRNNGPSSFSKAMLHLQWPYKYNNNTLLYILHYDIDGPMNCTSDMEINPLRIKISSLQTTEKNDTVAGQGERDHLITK
Chain of integrin αvβ3 receptor (P06756 891-1048 partner limits assumed): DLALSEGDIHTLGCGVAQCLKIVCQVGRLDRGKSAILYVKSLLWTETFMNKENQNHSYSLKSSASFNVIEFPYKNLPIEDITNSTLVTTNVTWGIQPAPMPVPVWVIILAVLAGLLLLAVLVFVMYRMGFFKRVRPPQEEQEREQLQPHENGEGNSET
Chain of integrin αvβ3 receptor (P05106 27-788): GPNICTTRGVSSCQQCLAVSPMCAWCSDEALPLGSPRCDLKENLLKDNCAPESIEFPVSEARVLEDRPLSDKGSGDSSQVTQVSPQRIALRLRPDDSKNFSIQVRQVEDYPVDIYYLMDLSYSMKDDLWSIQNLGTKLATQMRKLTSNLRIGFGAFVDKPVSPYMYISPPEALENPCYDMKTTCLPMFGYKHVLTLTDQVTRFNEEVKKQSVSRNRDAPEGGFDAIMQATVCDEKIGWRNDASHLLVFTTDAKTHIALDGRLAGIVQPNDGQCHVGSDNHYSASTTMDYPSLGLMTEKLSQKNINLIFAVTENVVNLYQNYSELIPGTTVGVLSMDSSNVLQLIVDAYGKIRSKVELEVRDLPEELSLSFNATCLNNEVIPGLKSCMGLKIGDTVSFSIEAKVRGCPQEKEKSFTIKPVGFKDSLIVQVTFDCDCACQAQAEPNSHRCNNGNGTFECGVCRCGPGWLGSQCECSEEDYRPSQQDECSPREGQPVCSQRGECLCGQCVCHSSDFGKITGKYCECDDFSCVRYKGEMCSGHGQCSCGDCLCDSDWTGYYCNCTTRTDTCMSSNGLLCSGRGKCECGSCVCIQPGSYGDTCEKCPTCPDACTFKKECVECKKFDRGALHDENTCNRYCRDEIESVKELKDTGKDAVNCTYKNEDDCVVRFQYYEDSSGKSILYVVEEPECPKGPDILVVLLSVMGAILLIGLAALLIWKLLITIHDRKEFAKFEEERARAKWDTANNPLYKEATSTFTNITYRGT

B1: yCD/UPRT: recombinant fusion of yCD and yUPRT without target molecule (protein)
chain: MVVTGGMASKWDQKGMDIAYEEAALGYKEGGVPIGGCLINNKDGSVLGRGHNMRFQKGSATLHGEISTLENCGRLEGKVYKDTTLYTTLSPCDMCTGAIIMYGIPRCVVGENVNFKSKGEKYLQTRGHEVVVVDDERCKKIMKQFIDERPQDWFEDIGEASEPFKNVYLLPQTNQLLGLYTIIRNKNTTRPDFIFYSDRIIRLLVEEGLNHLPVQKQIVETDTNENFEGVSFMGKICGVSIVRAGESMEQGLRDCCRSVRIGKILIQRDEETALPKLFYEKLPEDISERYVFLLDPMLATGGSAIMATEVLIKRGVKPERIYFLNLICSKEGIEKYHAAFPEVRIVTGALDRGLDENKYLVPGLGDFGDRYYCVLEHHHHHH
With B1 the Km ([1]; calculated by 5-FC consumption) was 1200 ± 100 µM, the Vmax ([1]; calculated by 5-FC consumption) was 137.2 ± 3.6 µM/min and the Km ([1]; calculated by 5-FU formation) was 1200 ± 100 µM. For the same molecule, the Vmax ([1]; calculated by 5-FU formation) was 112.7 ± 8.1 µM/min, the “binding to integrin αvβ3” value (integrin αvβ3 receptor; ELISA) was “cannot be bound” and the “binding to the three cells” value [2] was “weak binding”. The “binding and distribution in cells” value (HUVEC and U87MG cells; 4° C.) was “can not be effectively bound”.

B2: RGD4C-yCD: targeted prodrug enzyme fusion protein of RGD4C and yCD (SEQ ID NO: 3) (protein)
chain: MACDCRGDCFCVTGGMASKWDQKGMDIAYEEAALGYKEGGVPIGGCLINNKDGSVLGRGHNMRFQKGSATLHGEISTLENCGRLEGKVYKDTTLYTTLSPCDMCTGAIIMYGIPRCVVGENVNFKSKGEKYLQTRGHEVVVVDDERCKKIMKQFIDERPQDWFEDIGELEHHHHHH
modifications: RGD4C_yCD
Work on B2 yielded a Km ([1]; calculated by 5-FC consumption) of 600 ± 100 µM, a Vmax ([1]; calculated by 5-FC consumption) of 179.5 ± 4.7 µM/min and a Km ([1]; calculated by 5-FU formation) of 900 ± 100 µM. For the same molecule, the Vmax ([1]; calculated by 5-FU formation) was 167.7 ± 4.6 µM/min, the “decrease of binding to integrin αvβ3 by RGDfv peptide” value (integrin αvβ3 receptor) was 50% and the “cell binding ability higher than MCF-7” value (HUVEC cells) was “about 7.7 folds”. The “binding and distribution in cells” value (HUVEC and U87MG cells; 4° C.) was “only bound to HUVEC and U87MG cell surface”, the “binding and distribution in cells” value (HUVEC and U87MG cells; 37° C.) was “enter the inside of HUVEC and U87MG cells through endocytosis” and the Km [3] was 1000 ± 73.2 µM. For the same molecule, the Vmax [3] was 288.7 ± 8.883 µM/min.

B3: RGD4C-yCD/UPRT: targeted prodrug enzyme fusion protein (SEQ ID NO: 4) (protein)
chain: MACDCRGDCFCVTGGMASKWDQKGMDIAYEEAALGYKEGGVPIGGCLINNKDGSVLGRGHNMRFQKGSATLHGEISTLENCGRLEGKVYKDTTLYTTLSPCDMCTGAIIMYGIPRCVVGENVNFKSKGEKYLQTRGHEVVVVDDERCKKIMKQFIDERPQDWFEDIGEASEPFKNVYLLPQTNQLLGLYTIIRNKNTTRPDFIFYSDRIIRLLVEEGLNHLPVQKQIVETDTNENFEGVSFMGKICGVSIVRAGESMEQGLRDCCRSVRIGKILIQRDEETALPKLFYEKLPEDISERYVFLLDPMLATGGSAIMATEVLIKRGVKPERIYFLNLICSKEGIEKYHAAFPEVRIVTGALDRGLDENKYLVPGLGDFGDRYYCVLEHHHHHH
modifications: RGD4C_yCD_yUPRT
With B3 the Km ([1]; calculated by 5-FC consumption) was 1200 ± 200 µM, the Vmax ([1]; calculated by 5-FC consumption) was 147.0 ± 5.9 µM/min and the Km ([1]; calculated by 5-FU formation) was 1200 ± 200 µM. For the same molecule, the Vmax ([1]; calculated by 5-FU formation) was 109.2 ± 10.1 µM/min, the “decrease of binding to integrin αvβ3 by RGDfv peptide” value (integrin αvβ3 receptor) was 50% and the “cell binding ability higher than MCF-7” value (HUVEC cells) was “about 6.9 folds”. For the same molecule, the “binding and distribution in cells” value (HUVEC and U87MG cells; 4° C.) was “only bound to HUVEC and U87MG cell surface” and the “binding and distribution in cells” value (HUVEC and U87MG cells; 37° C.) was “enter the inside of HUVEC and U87MG cells through endocytosis”.
